Test results published in patent US11370833B2, “Antibody formulations” (Genentech, Inc., priority 2014, dated 2022).

Legend:
Assay type in all cases: physicochemical
[1] = FT-NIR trehalose crystallization after frozen storage (freeze rate and storage temperature studies)
Description: To prepare the samples for slow and normal freezing, two milliliter sample aliquots were dispensed into autoclaved 5 cc glass vials and sealed with 20 mm Lyo-Stoppers using aseptic technique in a ventilated biosafety hood with laminar air flow. Slow freezing was accomplished by placing sample vials in a lyophilizer on pre-cooled shelves and held between −1° C. and −3° C. for 24 hours.
(§1) Normal freezing was accomplished by placing sample vials in a freezer at −20° C. until samples were completely frozen. To control for supercooling, ice was nucleated by applying frozen CO2 to the side of each vial until ice formation.
(§2) Fast freezing was accomplished by quench cooling fifty microliter sample aliquots drop-wise into liquid nitrogen. The freezing endpoint was determined by the increased opacity and the sinking of the sphere from the surface into a stainless steel mesh collection basket. After freezing, one-milliliter aliquots of bulk drug substance frozen pellets were removed from the liquid nitrogen and transferred into sterile, pre-chilled 5 cc glass vials. The vials were then stored on frozen CO2, and sealed with 20 mm Lyo-Stoppers. The formulation screen samples were fast frozen in 96-well microplates using liquid nitrogen. Immediately after the microplates were frozen, the samples were nucleated by scratching the ice surface with a 24 gauge needles (BD, Franklin Lakes, N.J.).
Samples frozen at the three freeze rates (slow, normal, and fast) by the methods described were transferred to three freezer units with set points of −20° C., −14° C., and −8° C. with a range of ±2° C. for frozen storage. The freezer temperature was monitored using a Yokogawa temperature monitoring system (Yokogawa Meters and Instruments Corporation, Tokyo, Japan). Sample vials were pulled after 0, 1, 2, 3, 6, 9 and 12 months of isothermal, frozen storage and placed on the lab counter bench under ambient conditions (approximately 22° C.) and allowed to thaw prior to analysis.
Samples intended for trehalose crystallization determination were first freeze-dried using a LyoStar II lyophilizer unit controlled by LyoManager II software (FTS Systems, Stone Ridge, N.Y.). The frozen samples were placed on a pre-cooled shelf and held at −35° C. for 7 hours prior to primary drying. Primary drying was achieved under a system pressure of 150 μm Hg by linearly increasing the shelf temperature to 20° C. at a rate of 0.2° C./min, followed by a 40 hour hold at 20° C. Secondary drying was performed by linearly increasing shelf temperature to 30° C. at 0.2° C./min, followed by an 8 hour hold at 30° C. Thermocouples were placed in various sample vials to monitor temperature during freeze-drying. Following secondary drying, sample vials were stoppered while still under vacuum to prevent samples from hydrating prior to analysis. Low volume (300 microliter), formulation screen samples were lyophilized in 96-well glass plates (Zinsser, Germany) using the same lyophilization method.
The percent trehalose crystallization was determined using near infrared diffuse reflectance spectroscopy. Data collection, calibration, and analysis methods used in this study were adapted from previous work focused on characterizing the spectral differences between amorphous trehalose and crystalline trehalose polymorphs (Connolly, B., et al. (2010) Anal. Biochem. 399(1):48-57). Using these methods, sample NIR spectra were recorded from 10,000-4,000 cm^−1 using 32 averaged scans with 4 cm^−1 resolution on a Nicolet Antaris FT-Near IR Analyzer equipped with an integrating sphere module (Thermo Fisher Scientific, Waltham, Mass.). Percent trehalose crystallization was calculated using normalized peak intensity ratios of bands at 4306 cm^−1 and 4291 cm^−1 (Connolly, B., et al. (2010) Anal. Biochem. 399(1):48-57). Data analysis was conducted using a linear regression analysis with MATLAB (R2007a, The MathWorks, Natick, Massachussetts) (Connolly, B., et al. (2010) Anal. Biochem. 399(1):48-57). […]

[2] = Formulation composition study: FT-NIR percent trehalose crystallization; settings: trehalose 34.2% (wt/v), fast frozen, 12 months at −20° C.
Description: as §2
The formulation screen sample microplates were stored at two temperatures (−20±2° C., and −40±2° C.). The freezer temperature was monitored using a Yokogawa temperature monitoring system (Yokogawa Meters and Instruments Corporation, Tokyo, Japan).
Sample microplates for SEC analysis were stored isothermally for up to 365 days. Following frozen storage, microplates were thawed on the lab counter bench under ambient conditions (approximately 22° C.) prior to analysis. Control (0 day) samples were thawed immediately following completion of the freezing process. […]
The percent trehalose crystallization was determined using near infrared diffuse reflectance spectroscopy. […] Using these methods, sample NIR spectra were recorded from 10,000-4,000 cm^−1 using 32 averaged scans with 4 cm^−1 resolution on a Nicolet Antaris FT-Near IR Analyzer equipped with an integrating sphere module (Thermo Fisher Scientific, Waltham, Mass.). Percent trehalose crystallization was calculated using normalized peak intensity ratios of bands at 4306 cm^−1 and 4291 cm^−1 (Connolly, B., et al. (2010) Anal. Biochem. 399(1):48-57). […] Low volume (300 microliter) formulation screen samples were lyophilized and then analyzed for percent trehalose crystallization using the same method.

[3] = Turbidity analysis and visual inspection for precipitates; settings: fast freeze samples
Description: The turbidity of the samples was measured by recording the average absorbance from 340-360 nm in a quartz cuvette with 1-cm path length (Eckhardt, B. M., et al. (1991) Pharm. Res. 8:1360-4) on an HP8453 spectrophotometer using Chemstation software (Agilent Technologies, Santa Clara, Calif.). Sterile water for injection was used to blank the instrument prior to analyses. Turbidity analysis of formulation screen samples was performed on a UV transparent, Corning half area, 96-well microplate using Spectramax M2 instrument (Molecular Devices, Sunnyvale). The turbidity was measured against a Sterile Water for Injection blank and the turbidity value measured by recording the average of the absorbance from 340-360 nm.

[4] = Visual trehalose crystallization in frozen trehalose solutions with pH indicating dye; settings: 2.0, 4.0 and 8.0% (wt/v) trehalose, 20 mM histidine-acetate pH 5.5; normal freeze rate, −20° C. for 6 days
Description: Additional solutions were prepared with 0.0, 2.0, 4.0, and 8.0% (wt/v) trehalose in 20 mM histidine-acetate, at pH 5.5, and Water for Injection. Fifty microliters of pHydrion (pH Range: 0-7) pH-indicator dye (Micro Essential Laboratory, NY) was dispensed into a 10 cc glass vial and allowed to evaporate. Approximately four milliliters of the various trehalose formulations were added to the vial and the dye was allowed to dissolve in the solution. Photographs of frozen trehalose solutions were obtained using an Olympus Stylus 770SW digital camera (Olympus America Inc., NJ) in supermacro mode.
as §1
It is of significant interest to understand if trehalose crystallization impacts protein stability at pharmaceutically relevant (≤10% wt/v) concentrations. To evaluate the impact of nominal trehalose concentration on excipient crystallization, solutions were prepared with 0.0, 2.0, 4.0 and 8.0% (wt/v) trehalose dihydrate in the presence of pH indicating dye to better visualize crystallization. The samples were frozen using the normal freeze rate and stored at −20° C. for 6 days.

[5] = Fast freeze, 12 months frozen storage at −8° C.
[6] = Fast freeze, 12 months frozen storage at −14° C.
[7] = Fast freeze, 12 months frozen storage at −20° C.
[8] = Normal freeze, 12 months frozen storage at −8° C.
[9] = Normal freeze, 12 months frozen storage at −14° C.
[10] = Normal freeze, 12 months frozen storage at −20° C.
[11] = Slow freeze, 12 months frozen storage at −8° C.
[12] = Slow freeze, 12 months frozen storage at −14° C.
[13] = Slow freeze, 12 months frozen storage at −20° C.

Q: For “Bevacizumab: recombinant humanized anti-VEGF IgG1 monoclonal antibody; 25 mg/mL in 5.4% trehalose, 51 mM sodium phosphate pH 6.2, 0.04% polysorbate 20”, which “trehalose crystallization by FT-NIR, fast freeze samples” value ([1]; 12 month samples, fast freeze) is on record?
A: measurable amounts of trehalose crystallization

Q: What about the “trehalose crystallization by FT-NIR, slow and normal freeze samples” value ([1]; 12 month samples, slow and normal freeze) of the same molecule?
A: no measurable amounts of trehalose crystallization

Q: What about the “Amorphous Trehalose” value [1, 5] of the same molecule?
A: 3.8 % wt/v

Q: And the “Crystallized Trehalose” value [1, 5]?
A: 1.6 % wt/v

Q: What about the “Amorphous Trehalose” value [1, 6] of the same molecule?
A: 2.9 % wt/v

Q: What about the “Crystallized Trehalose” value [1, 6] of the same molecule?
A: 2.5 % wt/v

Q: What about the “Amorphous Trehalose” value [1, 7] of the same molecule?
A: 3.0 % wt/v

Q: And the “Crystallized Trehalose” value [1, 7]?
A: 2.5 % wt/v

Q: What about the “Amorphous Trehalose” value [1, 8] of the same molecule?
A: 5.2 % wt/v

Q: What about the “Crystallized Trehalose” value [1, 8] of the same molecule?
A: 0.3 % wt/v

Q: And the “Amorphous Trehalose” value [1, 9]?
A: 5.1 % wt/v

Q: What about the “Crystallized Trehalose” value [1, 9] of the same molecule?
A: 0.3 % wt/v

Q: What about the “Amorphous Trehalose” value [1, 10] of the same molecule?
A: 5.1 % wt/v

Q: And the “Crystallized Trehalose” value [1, 10]?
A: 0.3 % wt/v

Q: What about the “Amorphous Trehalose” value [1, 11] of the same molecule?
A: 5.2 % wt/v

Q: What about the “Crystallized Trehalose” value [1, 11] of the same molecule?
A: 0.2 % wt/v

Q: And the “Amorphous Trehalose” value [1, 12]?
A: 5.2 % wt/v

Q: And the “Crystallized Trehalose” value [1, 12]?
A: 0.3 % wt/v

Q: What about the “Amorphous Trehalose” value [1, 13] of the same molecule?
A: 5.1 % wt/v

Q: And the “Crystallized Trehalose” value [1, 13]?
A: 0.3 % wt/v

Q: What about the percent crystallized trehalose ([2]; [bevacizumab]=25 mg/mL) of the same molecule?
A: 61%

Q: And the percent crystallized trehalose ([2]; [bevacizumab]=100 mg/mL)?
A: 47%

Q: And the “precipitates by turbidity analysis and visual inspection” value [3]?
A: formation of precipitates

Q: Which “time at which trehalose crystallization reaches a plateau” value ([1]; frozen storage, data not shown) does the source give for `OC[C@H]1O[C@H](O[C@H]2O[C@H](CO)[C@@H](O)[C@H](O)[C@H]2O)[C@H](O)[C@@H](O)[C@@H]1O` [trehalose] here?
A: ≤ 2 weeks

Q: And the percent crystallized trehalose ([2]; [bevacizumab]=0 mg/mL)?
A: 86%

Q: What about the “visual trehalose crystallization after induced nucleation” value [4] of the same molecule?
A: visually observed
